Experimental findings from publication PMC13208732 are described below.

Test [1] has as its target human vascular endothelial growth factor A, isoform VEGFA165 (human) (UniProt P15692). Nature of the test: ELISA; competition with NRP1, no heparin. For orientation: In an ELISA, binding on a coated surface is turned into a signal by an enzyme label.
For test [2] the target is unchanged. The test is described as follows: ELISA; competition with VEGFR1, no heparin.
Test [3] concerns the target human vascular endothelial growth factor A, isoform VEGFA165 (Homo sapiens). Nature of the test: ELISA; competition with biotinylated NRP1, no heparin. Particulars: Fc fusion.
The target is the same in test [4]. The test is described as follows: ELISA; competition with biotinylated VEGFR1, no heparin. The note with it: Fc fusion.

human vascular endothelial growth factor A, isoform VEGFA165 (Homo sapiens), sequence (P15692 other isoform, or with tags, fused parts or gaps): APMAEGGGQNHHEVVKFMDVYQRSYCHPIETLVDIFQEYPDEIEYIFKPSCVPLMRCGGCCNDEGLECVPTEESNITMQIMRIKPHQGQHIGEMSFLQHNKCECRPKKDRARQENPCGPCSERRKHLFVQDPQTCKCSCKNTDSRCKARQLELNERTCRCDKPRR
human vascular endothelial growth factor A, isoform VEGFA165 (human), sequence (P15692 other isoform, or with tags, fused parts or gaps): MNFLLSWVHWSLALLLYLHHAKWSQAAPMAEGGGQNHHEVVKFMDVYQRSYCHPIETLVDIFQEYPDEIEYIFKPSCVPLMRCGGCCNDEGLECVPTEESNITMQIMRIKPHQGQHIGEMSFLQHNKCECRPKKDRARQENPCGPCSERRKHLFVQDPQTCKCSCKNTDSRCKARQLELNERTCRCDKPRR
VEGFR1 domains 1 to 6 fused to a C-terminal Fc, biotinylated, sequence (P17948 27-654): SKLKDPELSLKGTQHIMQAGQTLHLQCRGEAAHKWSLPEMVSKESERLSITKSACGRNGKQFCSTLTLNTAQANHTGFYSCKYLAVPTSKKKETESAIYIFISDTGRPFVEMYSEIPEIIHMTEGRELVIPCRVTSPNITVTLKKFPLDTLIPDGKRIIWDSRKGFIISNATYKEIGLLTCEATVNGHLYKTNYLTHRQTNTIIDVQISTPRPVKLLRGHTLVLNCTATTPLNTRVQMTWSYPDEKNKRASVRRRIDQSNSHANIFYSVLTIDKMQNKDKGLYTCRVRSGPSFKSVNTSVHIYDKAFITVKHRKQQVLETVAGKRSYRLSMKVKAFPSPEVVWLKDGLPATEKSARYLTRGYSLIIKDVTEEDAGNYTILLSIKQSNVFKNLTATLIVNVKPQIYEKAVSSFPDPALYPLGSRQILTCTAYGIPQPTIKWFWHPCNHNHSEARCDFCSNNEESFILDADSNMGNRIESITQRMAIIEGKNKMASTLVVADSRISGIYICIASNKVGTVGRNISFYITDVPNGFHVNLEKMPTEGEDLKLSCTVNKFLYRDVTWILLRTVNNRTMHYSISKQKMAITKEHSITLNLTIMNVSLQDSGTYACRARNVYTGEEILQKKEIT

Take G6-31: the results for the IC50 in test [1] and in test [2] were 1.9 nM and 58.2 nM, respectively. As to “NRP1 receptor domains α1α2β1β2 fused to a C-terminal Fc, biotinylated (from UniProt O14786 22-583)”, the IC50 (usually the concentration at which inhibition is half-maximal) in test [3] turned out to be 52.8 nM.

“VEGFR1 domains 1 to 6 fused to a C-terminal Fc, biotinylated (from UniProt P17948 27-654)” had an IC50 in test [4] of 16.3 nM. This lies in the double-digit nanomolar range.
